T1: full-length KIF5B-GFP with C-terminal Strep-tag (human, UniProt P33176 1-963)
T1 sequence (looked up): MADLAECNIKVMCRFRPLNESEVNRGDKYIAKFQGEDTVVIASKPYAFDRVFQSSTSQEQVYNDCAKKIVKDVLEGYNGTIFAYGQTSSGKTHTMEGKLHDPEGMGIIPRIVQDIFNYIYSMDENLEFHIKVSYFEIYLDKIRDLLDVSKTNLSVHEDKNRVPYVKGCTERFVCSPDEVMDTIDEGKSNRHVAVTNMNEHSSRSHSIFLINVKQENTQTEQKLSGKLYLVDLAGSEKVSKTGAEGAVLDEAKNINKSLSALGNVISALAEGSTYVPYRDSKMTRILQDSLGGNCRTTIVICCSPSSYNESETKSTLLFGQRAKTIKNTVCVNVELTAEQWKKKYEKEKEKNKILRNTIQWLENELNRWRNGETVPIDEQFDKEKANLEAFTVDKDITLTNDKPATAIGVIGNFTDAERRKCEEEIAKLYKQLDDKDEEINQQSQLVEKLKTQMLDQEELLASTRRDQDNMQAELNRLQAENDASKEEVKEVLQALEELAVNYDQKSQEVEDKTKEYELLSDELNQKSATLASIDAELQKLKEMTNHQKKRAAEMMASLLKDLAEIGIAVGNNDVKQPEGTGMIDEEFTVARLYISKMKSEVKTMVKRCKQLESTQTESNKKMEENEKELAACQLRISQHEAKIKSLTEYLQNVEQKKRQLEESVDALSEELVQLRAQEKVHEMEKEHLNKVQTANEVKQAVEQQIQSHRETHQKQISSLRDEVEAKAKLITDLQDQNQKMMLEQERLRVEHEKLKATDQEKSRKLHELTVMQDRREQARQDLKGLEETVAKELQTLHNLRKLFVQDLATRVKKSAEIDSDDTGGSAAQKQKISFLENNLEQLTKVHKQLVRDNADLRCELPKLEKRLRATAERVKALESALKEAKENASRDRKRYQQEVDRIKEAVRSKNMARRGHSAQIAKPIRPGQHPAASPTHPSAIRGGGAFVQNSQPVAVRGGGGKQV

B1: K370-GFP with C-terminal Strep-tag, purified (domain or fragment)
chain: not shown
notes: kinesin-1 heavy chain KIF5B, human, residues 1-370; pEGFP-N1 vector; also called KIF5B 1–370; source: HEK293T, transfected, purified (Strep(II)-streptactin); not shown: GFP, C-terminal, kept
B2: Alexa Fluor 647–labeled SNAP-tag-MAP7D3, full length (natural protein, UniProt Q8IWC1 1-876, looked up)
chain: MMADGAAAGAGGSPSLRELRARMVAAANEIAKERRKQDVVNRVATHSSNIRSTFKPVIDGSMLKNDIKQRLARERREEKRRQQDANKETQLLEKERKTKLQYEKQMEERQRKLKERKEKEEQRRIAAEEKRHQKDEAQKEKFTAILYRTLERRRLADDYQQKRWSWGGSAMANSESKTANKRSASTEKLEQGTSALIRQMPLSSAGLQNSVAKRKTDKERSSSLNRRDSNLHSSTDKEQAERKPRVTGVTNYVMQYVTVPLRKCTSDELRAVMFPMSTMKIPPQTKVEESPLEKVETPPKASVDAPPQVNVEVFCNTSMEASPKAGVGMAPEVSTDSFPVVSVDVSPVVSTYDSEMSMDASPELSIEALPKVDLETVPKVSIVASPEASLEAPPEVSLEALPEVSVEAAPEGSLEAPPKGSAEVAPKESVKGSPKESMEASPEAMVKASPKTSLEASMEASPKAKARDAPKKSEMDKQALIPIAKKRLSSYTECYKWSSSPENACGLPSPISTNRQIQKNCPPSPLPLISKQSPQTSFPYKIMPIQHTLSVQSASSTVKKKKETVSKTTNRCEALSQRHMIYEESGNKSTAGIMNAEAATKILTELRRLAREQREKEEEERQREEMQQRVIKKSKDMAKEAVGGQAEDHLKLKDGQQQNETKKKKGWLDQEDQEAPLQKGDAKIKAQEEADKRKKEHERIMLQNLQERLERKKRIEEIMKRTRKTDVNASKVTETSSHDIYEEAEADNEESDKDSLNEMFPSAILNGTGSPTKFKMPFNNAKKMTHKLVFLEDGTSQVRKEPKTYFNGDLKNFRQKSMKDTSIQEVVSRPSSKRMTSHTTKTRKADETNTTSRSSAQTKSEGFHDILPKSSDTFRQ
modifications: Alexa Fluor 647 on the SNAP-tag
B3: K560-GFP with C-terminal Strep-tag, purified (domain or fragment, human, UniProt P33176 1-560, looked up)
chain: MADLAECNIKVMCRFRPLNESEVNRGDKYIAKFQGEDTVVIASKPYAFDRVFQSSTSQEQVYNDCAKKIVKDVLEGYNGTIFAYGQTSSGKTHTMEGKLHDPEGMGIIPRIVQDIFNYIYSMDENLEFHIKVSYFEIYLDKIRDLLDVSKTNLSVHEDKNRVPYVKGCTERFVCSPDEVMDTIDEGKSNRHVAVTNMNEHSSRSHSIFLINVKQENTQTEQKLSGKLYLVDLAGSEKVSKTGAEGAVLDEAKNINKSLSALGNVISALAEGSTYVPYRDSKMTRILQDSLGGNCRTTIVICCSPSSYNESETKSTLLFGQRAKTIKNTVCVNVELTAEQWKKKYEKEKEKNKILRNTIQWLENELNRWRNGETVPIDEQFDKEKANLEAFTVDKDITLTNDKPATAIGVIGNFTDAERRKCEEEIAKLYKQLDDKDEEINQQSQLVEKLKTQMLDQEELLASTRRDQDNMQAELNRLQAENDASKEEVKEVLQALEELAVNYDQKSQEVEDKTKEYELLSDELNQKSATLASIDAELQKLKEMTNHQKKRAAEMMASLLK
notes: kinesin-1 heavy chain KIF5B, human, residues 1-560; pTT5 vector; also called KIF5B-560; source: HEK293T, transfected, purified (Strep(II)-streptactin, high-salt wash); not shown: GFP, C-terminal, kept
B4: KIF5B fragment (minimal binding construct for SEC-MALS and ITC) (domain or fragment)
chain: CEEEIAKLYKQLDDKDEEINQQSQLVEKLKTQMLDQEELLASTRRDQDNMQAELNRLQAENDASKEEVKEVLQALEELAVNYDQKSQEVEDKTKEYELLSDEL

Series [1] deals with the molecule itself. Put plainly: single-molecule fluorescence intensity analysis (TIRF); intensity of GFP-tagged kinesins moving on MTs compared with monomeric GFP, with or without MAP7 proteins; 30°C.
Series [2] concerns the target B3. Briefly: cell-based or functional assay.
For series [3], the target named is T1, full-length KIF5B-GFP with C-terminal …. Briefly: cell-based or functional assay.
Series [4] concerns the molecule itself. Briefly: SEC-MALS; Superdex 200 10/300, 10 mM Tris HCl pH 7.5, 150 mM NaCl, 20°C; 30 µl of protein at 5 mg/ml injected.

Where only a bound is given, the exact number is not on record here.

On to B1, for which the “stoichiometry N” value in series [1] worked out at 2. B2: in series [2], the “landing frequency of K560-GFP on MAP-decorated dynamic MTs in vitro, increasing MAP concentrations, against K560 alone” value is at most 23.6 fold and the “processivity (run length) of K560-GFP on dynamic MTs in vitro” value came to 2 fold. In series [3], the “events of full-length KIF5B-GFP on dynamic MTs in vitro (short binding events and landing followed by processive movement), with MAP against kinesin alone” value was at least 60 fold; the “run length of full-length KIF5B-GFP on dynamic MTs in vitro, with MAP against kinesin alone” value is about 1.6 fold. In the case of B3, the “stoichiometry N” value in series [1] was 2.

Take B4: the “stoichiometry N” value in series [4] was found to be 2.

These data come from article PMC6446838, “MAP7 family proteins regulate kinesin-1 recruitment and activation” (The Journal of Cell Biology, 2019).
